Substitutions are numbered along the chain they refer to.

23 molecules from patent publication US20200299408A1 (Genentech, published 2020) can be followed below.

T1: single chain human CD3ε-26mer-CD3γ (CD3εγ) (human)
T1 construct: also called human CD3εγ
T1 chain: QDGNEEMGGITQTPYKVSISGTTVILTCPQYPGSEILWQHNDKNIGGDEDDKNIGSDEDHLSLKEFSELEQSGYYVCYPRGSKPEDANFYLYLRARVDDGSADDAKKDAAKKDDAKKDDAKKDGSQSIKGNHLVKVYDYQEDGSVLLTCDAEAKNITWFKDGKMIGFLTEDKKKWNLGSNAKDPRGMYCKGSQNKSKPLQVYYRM

B1: 127B3 (antibody, IgG3, V domains shown)
VH: QVQLQQSGSELVRPGASLKLSCKASGYTFTSYWMHWVRQRPGQGLEWIGNFYPGDLTVNYDEKFKNKVTLAVDTSSSTAFLQLSSLTSEDSAVYYCTRDAYSRYFFDYWGQGTTLTVSS
VL: DIVMTQSPSSLAVSAGEKVTMSCKSSQSLLNSRTRKNYLAWYQQKPGQSPKLLIYWASTRESGVPDRFTGSGSGTDFTLTISSVQTEDLAVYYCCQSFILRTFGGGTKLEIK
notes: mouse hybridoma clone
B2: 40D2 (antibody, IgG2b, V domains shown)
VH: QVQLQQSGPELVKPGASLKISCKASGYSFANYYTHWVRQRPGQGLEWIGWLYPGNGDTRYNEKFKDKATLTADTSSNTASMQLNSLTSEDSAVYYCTRDSYGNYFFDYWGQGTTLIVSS
VL: B1 VL with Y55F, T86A, C95K, I111L
notes: mouse hybridoma clone
B3: 39B7 (antibody, IgG2b, V domains shown)
VH: QVQLQQSGPELVKPGTSVKISCKTSGYNFINYYTHWVKQRPGQGLEWIGWIYPGNGNIKYNEKFMGKATLTADTSSTTAHMHLSSLVSEDSAVYYCARDSYGSYYFDYWGQGTTLTVSS
VL: B1 VL with S22T, T86A, C95K
notes: mouse hybridoma clone
B4: 118G9 (antibody, IgG3, V domains shown)
VH: QVQLQQPGSELVRPGASVTLSCTASGYSFTSYWMHWVKQRPGQGLEWVGNIYPGGEIINYAEKFKTKGTLTVDISSSTAYMHLSSLTSDDSAVYYCTRDTTGNYFFDYWGQGTTLTVSS
VL: B1 VL with Q48L, D66E, C95T, K108R
notes: mouse hybridoma clone
B5: 95A2 (antibody, IgG3, V domains shown)
VH: QVQLQQSGPEMVKPGASVTISCKTSGFTFTSYYIHWMMQRPGQGLEWIGWLYPGDVSTRYNEKFRDKATLTADKSSTTAYLYLSSLTSEDSAVYFCARDSSASYYFDFWGQGTTLTVSS
VL: B1 VL with K18M, M21L, S22H, S32I, Q43L, K51R, E61A, T86P, C95T, I111L
notes: mouse hybridoma clone
B6: 79B7 (antibody, IgG3, V domains shown)
VH: B1 VH with F51S, T57N
VL: B1 VL
notes: mouse hybridoma clone
B7: 38E4 v2 (antibody, V domains shown)
VH: EVQLVQSGAEVKKPGASVKVSCKASGFTFTSYYIHWVRQAPGQGLEWIGWIYPENDNTKYNEKFKDRVTITADTSTSTAYLELSSLRSEDTAVYYCARDAYSRYYFDYWGQGTLVTVSS
VL: DIVMTQSPDSLAVSLGERATINCKSSQSLLNSRTRKNYLAWYQQKPGQSPKLLIYWTSTRKSGVPDRFSGSGSGTDFTLTISSLQAEDVAVYYCKQSFILRTFGQGTKVEIK
B8: 38E4 v9 (antibody, V domains shown)
VH: B7 VH with A100G, Y104A
VL: B7 VL
B9: 38E4 v5 (antibody, V domains shown)
VH: B7 VH with A100G
VL: B7 VL with F98A
B10: 38E4 v6 (antibody, V domains shown)
VH: B7 VH with D99T, A100G
VL: B7 VL
B11: 38E4 v3 (antibody, V domains shown)
VH: B7 VH with A100G
VL: B7 VL with I99A
B12: 38E4 v4 (antibody, V domains shown)
VH: B7 VH with A100G
VL: B7 VL with Q96A
B13: 38E4 v8 (antibody, V domains shown)
VH: B7 VH with D99S, A100G
VL: B7 VL
B14: 38E4 v7 (antibody, V domains shown)
VH: B7 VH with A100G, Y105A
VL: B7 VL
B15: 40G5c Fab (Fab, V domains shown)
VH: B7 VH with F27Y, S31N, E54G, N55D, D56G, D66G, V68A, I70L, A100S, R103N
VL: B7 VL with S49P, T57A, K61E, K95T
B16: 38E4v6 Fab (Fab, V domains shown)
VH: B7 VH with D99T, A100G
VL: B7 VL
B17: 38E4v2 Fab (Fab, V domains shown)
VH: B7 VH
VL: B7 VL
B18: 38E4v9 Fab (Fab, V domains shown)
VH: B7 VH with A100G, Y104A
VL: B7 VL
B19: 38E4v5 Fab (Fab, V domains shown)
VH: B7 VH with A100G
VL: B7 VL with F98A
B20: 38E4v8 Fab (Fab, V domains shown)
VH: B7 VH with D99S, A100G
VL: B7 VL
B21: 38E4v4 Fab (Fab, V domains shown)
VH: B7 VH with A100G
VL: B7 VL with Q96A
B22: 38E4v7 Fab (Fab, V domains shown)
VH: B7 VH with A100G, Y105A
VL: B7 VL
B23: 38E4v3 Fab (Fab, V domains shown)
VH: B7 VH with A100G
VL: B7 VL with I99A

For one assay, the target named is CD3 antigen of Figures 3B and 3C (not named). Description: kinetic table of IgGs; method and antigen not stated.
B1: the dissociation constant Kd was determined as 0.744 nM, the off-rate (koff) came out at 9.67e-05 s⁻¹ and the kon was determined as 130000 M⁻¹ s⁻¹.
B2 showed a Kd of 0.563 nM, a koff of 0.000111 s⁻¹ and an on-rate constant (kon) of 197000 M⁻¹ s⁻¹.
Molecule B3 yielded a dissociation constant Kd of 0.331 nM, an off-rate constant (koff) of 7.31e-05 s⁻¹ and a kon of 220000 M⁻¹ s⁻¹.
Regarding B4, the Kd was 0.209 nM, the koff came out at 3.74e-05 s⁻¹ and the kon was found to be 179000 M⁻¹ s⁻¹.
On to B5, for which the affinity, expressed as Kd, was 0.0644 nM; the koff is 1.87e-05 s⁻¹; the kon is 290000 M⁻¹ s⁻¹.
B6 came in with a Kd of 0.224 nM, an off-rate constant (koff) of 3.41e-05 s⁻¹ and an on-rate constant (kon) of 152000 M⁻¹ s⁻¹.

In another assay the target is T1, single chain human CD3ε-26mer-CD3γ …. Description: Biacore, human CD3εγ on chip, antibody in flow-through.
In the case of B7, the Kd came out at 1.6 nM, the dissociation rate constant (koff) is 0.0036 s⁻¹ and the kon worked out at 2.29e+06 M⁻¹ s⁻¹.
Turning to B8, binding was put at a Kd of 229 nM, the koff came to 0.0166 s⁻¹ and the kon was determined as 72600 M⁻¹ s⁻¹.
With B9, binding was characterised by a dissociation constant (Kd) of 11 nM, the off-rate (koff) is 0.0225 s⁻¹ and the kon is 2.05e+06 M⁻¹ s⁻¹.
For B10, the affinity, expressed as Kd, was 34 nM; the koff came to 0.0017 s⁻¹; the association rate constant (kon) was found to be 51100 M⁻¹ s⁻¹.
Regarding B11, the dissociation constant (Kd) turned out to be 3.4 nM, the koff came to 0.014 s⁻¹ and the kon came out at 4.11e+06 M⁻¹ s⁻¹.
On the same counts, the results for B12 are 10 nM, 0.0034 s⁻¹ and 325000 M⁻¹ s⁻¹.
On the same counts, the results for B13 are 180 nM, 0.202 s⁻¹ and 1.12e+06 M⁻¹ s⁻¹.
On the same counts, the results for B14 are 87 nM, 0.0246 s⁻¹ and 283000 M⁻¹ s⁻¹.

The target is the same in another assay. The experiment in a line: Biacore, human CD3εγ on chip, Fab in flow through. As to the method: Binding affinities for the each of the CD3/CD20 TDBs were tested by Biacore or FACS analysis, as described above for the anti-CD3 antibodies. Briefly, for Biacore binding assays, human CD3εγ was immobilized on Biacore Series S CM5 sensor chip using the amine coupling kit from Biacore and CD3/CD20 TDBs or Fab variants thereof were in the flow through. For FACS binding assays, either Bjab cells (for B cell antigens) or Jurkat cells (for CD3 antigen) were incubated with various concentrations of TDB antibodies at 4° C. for 30 minutes, then cells were washed and incubated with 2nd antibody (anti-huIgG-PE; BD Bioscience) for another 15 minutes, before cells were washed again and ready for FACS analysis.
As for B15, the dissociation constant (Kd) stood at 63.2 nM, the dissociation rate constant (koff) worked out at 0.0253 s⁻¹ and the kon was determined as 401000 M⁻¹ s⁻¹.
Regarding B16, binding was put at a Kd of 34.2 nM, the dissociation rate constant (koff) was 0.00175 s⁻¹ and the association rate constant (kon) is 51100 M⁻¹ s⁻¹.
The corresponding values for B17 are 1.6 nM, 0.00359 s⁻¹ and 2.29e+06 M⁻¹ s⁻¹.
As to B18, binding was characterised by a dissociation constant (Kd) of 229 nM, the koff came out at 0.0166 s⁻¹ and the on-rate (kon) was determined as 72600 M⁻¹ s⁻¹.
The corresponding values for B19 are 11 nM, 0.0225 s⁻¹ and 2.05e+06 M⁻¹ s⁻¹.
Regarding B20, the dissociation constant (Kd) was found to be 180 nM, the koff was 0.202 s⁻¹ and the on-rate (kon) amounted to 1.12e+06 M⁻¹ s⁻¹.
On the same counts, the results for B21 are 10.3 nM, 0.00336 s⁻¹ and 325000 M⁻¹ s⁻¹.
B22 came in with a dissociation constant Kd of 87 nM, a dissociation rate constant (koff) of 0.0246 s⁻¹ and a kon of 283000 M⁻¹ s⁻¹.
B23: the equilibrium dissociation constant (Kd) amounted to 3.4 nM, the off-rate constant (koff) stood at 0.014 s⁻¹ and the association rate constant (kon) is 4.11e+06 M⁻¹ s⁻¹.
